Data as given in PMC3637846 (Nature, 2013).

Assays:
[1] = biological target: heterologous T/F Env C.1086 (HIV-1 subtype C, isolate 1086 (T/F), UniProt C6G099, strain); test: ELISA
[2] = biological target: CH505 transmitted/founder (T/F) Env gp140 (HIV-1 subtype C, CH505 (703010505) …, strain); test: SPR

Binder | binding result [1] | binding result [2]
CH103 unmutated common ancestor (UCA) mAb (antibody, V domains shown) VH: QVQLQESGPGLVKPSETLSLTCTVSGGSISSYYWSWIRQPPGKGLEWIGYIYYSGSTNYNPSLKSRVTISVDTSKNQFSLKLSSVTAADTAVYYCASLPRGQLVNAYFDYWGQGTLVTVSS VL: not shown | no binding | 
inferred intermediate antibody I1 (antibody, V domains shown) V domain 1: QVQLQESGPGVVKSSETLSLTCTVSGGSMGGTYWSWLRLSPGKGLEWIGYIFHTGHTNYSPSLKGRVSISVDTSEDQFSLRLRSVTAADTAVYFCASLPRGQLVNAYFRNWGRGTLVSVTA V domain 2: SYELTQPPSVSVSPGQTATITCSGDKVASKNVCWYQVKPGQSPEVVMYENYKRPSGIPDRFSGSKSGSTATLTIRGTQATDEADYYCQVWDSFSTFVFGSGTQVTV |  | binds
CH103 (full-length IgG1 recombinant mAb) (antibody, V domains shown) V domain 1: QVQLQESGPGVVKSSETLSLTCTVSGGSMGGTYWSWLRLSPGKGLEWIGYIFHTGETNYSPSLKGRVSISVDTSEDQFSLRLRSVTAADTAVYFCASLPRGQLVNAYFRNWGRGSLVSVTA V domain 2: SYELTQPPSVSVSPGQTATITCSGASTNVCWYQVKPGQSPEVVIFENYKRPSGIPDRFSGSKSGSTATLTIRGTQAIDEADYYCQVWDSFSTFVFGSGTQVTV |  | binds
CH104 (full-length IgG1 recombinant mAb) (antibody, V domains shown) V domain 1: QVQLQESGPGVVKSSETLSLTCTVSGGSMGGTYWSWLRLSPGKGLEWIGYIFHTGHTNYNPSLEGRVSISVDTSEDQFSLRLRSVTAADTAVYFCASLPRGQLVNAYFRNWGRGTLVSVTA V domain 2: SYELTQPPSVSVSPGQTATITCSGDKVASKNVCWYQVKPGQSPEVVMYENYKRASGIPDRFSGSKSGSTATLTIRGTQATDEADYYCQVWDSFSTFVFGSGTQVTV |  | binds
